Data set [1] has as its system human and rat bone cells. As to conditions: human and rat/murine orthologues; cited from earlier work.
The subject of data set [2] is subjects with bilateral knee osteoarthritis. Description: Multicenter, randomized double-blind, placebo-controlled clinical study in bilateral knee osteoarthritis. It counts as in vivo, human. To be noted: IA injections. How it is done:
No other doses of drug or placebo were administered.
MRI of both knees were obtained from these 93 subjects at baseline, 6 and/or 12 months. They were sent to the central readers of cartilage thickness and 3D bone shape, respectively. Both central readers were blinded to the treatment assignment and clinical data throughout their analysis process.
For the 3D bone shape analyses, its central reader first made a qualification review of all MRI images from the 93 subjects since they were obtained primarily for cartilage thickness measurement.
MRIs from the remaining 78 subjects (156 knees: 78 Index and 78 Control) were qualified for analysis of 3D shape of the knee joint bones (B-scores of femur, tibia, and patella).
If all clinical inclusion and exclusion criteria were met, MRIs of both knees were obtained and evaluated by a central reader to determine the ICRS grade (gICRS) of each knee as the final screening criterion. […]
Vital signs were also monitored after the injections.
Adverse events and concomitant medications were recorded.
All KOOS subscale scores, WOMAC Total score and subscale scores, MRI-based patello-femoral and tibiofemoral cartilage thickness, and MRI-based subchondral bone area and 3D bone shape were analyzed.
MRI images were provided to central readers for cartilage and subchondral bone measures, respectively. Central readers were blind as to treatment assignment. […]

The conditions of data set [3]: in vivo.
The target in data set [4] is T1, recombinant human integrin αvβ3 (human, UniProt P06756 31-992; P05106 27-718).
T1 construct: Bought from R&D Systems
T1 sequence (P06756 31-992 limits assumed, chain 1 of 2): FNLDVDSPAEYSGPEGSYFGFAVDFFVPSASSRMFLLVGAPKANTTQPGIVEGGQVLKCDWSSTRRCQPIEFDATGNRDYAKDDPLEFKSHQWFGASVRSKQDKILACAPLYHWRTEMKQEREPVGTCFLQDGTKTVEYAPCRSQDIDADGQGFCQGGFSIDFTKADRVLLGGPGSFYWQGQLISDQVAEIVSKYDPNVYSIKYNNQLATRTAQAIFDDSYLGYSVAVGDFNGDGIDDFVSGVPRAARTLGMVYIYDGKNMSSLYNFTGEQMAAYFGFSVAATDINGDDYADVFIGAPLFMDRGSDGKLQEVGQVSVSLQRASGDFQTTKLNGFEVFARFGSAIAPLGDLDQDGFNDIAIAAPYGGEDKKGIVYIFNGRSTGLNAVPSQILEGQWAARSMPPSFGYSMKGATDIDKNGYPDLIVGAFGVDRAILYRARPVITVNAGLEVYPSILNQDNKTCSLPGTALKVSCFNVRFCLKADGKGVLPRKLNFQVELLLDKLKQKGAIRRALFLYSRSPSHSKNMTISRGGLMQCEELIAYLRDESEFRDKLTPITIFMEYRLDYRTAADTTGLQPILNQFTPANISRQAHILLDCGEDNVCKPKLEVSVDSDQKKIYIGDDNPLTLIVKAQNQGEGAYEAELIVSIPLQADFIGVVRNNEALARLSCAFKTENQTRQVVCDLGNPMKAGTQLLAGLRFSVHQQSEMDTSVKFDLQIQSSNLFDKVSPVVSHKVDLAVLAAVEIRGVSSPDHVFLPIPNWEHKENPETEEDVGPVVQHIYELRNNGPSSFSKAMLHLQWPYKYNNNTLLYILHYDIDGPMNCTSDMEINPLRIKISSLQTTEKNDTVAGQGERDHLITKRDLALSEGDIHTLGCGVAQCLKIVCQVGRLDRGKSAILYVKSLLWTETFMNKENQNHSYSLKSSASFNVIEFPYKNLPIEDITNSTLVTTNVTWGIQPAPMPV
T1 sequence (P05106 27-718 limits assumed, chain 2 of 2): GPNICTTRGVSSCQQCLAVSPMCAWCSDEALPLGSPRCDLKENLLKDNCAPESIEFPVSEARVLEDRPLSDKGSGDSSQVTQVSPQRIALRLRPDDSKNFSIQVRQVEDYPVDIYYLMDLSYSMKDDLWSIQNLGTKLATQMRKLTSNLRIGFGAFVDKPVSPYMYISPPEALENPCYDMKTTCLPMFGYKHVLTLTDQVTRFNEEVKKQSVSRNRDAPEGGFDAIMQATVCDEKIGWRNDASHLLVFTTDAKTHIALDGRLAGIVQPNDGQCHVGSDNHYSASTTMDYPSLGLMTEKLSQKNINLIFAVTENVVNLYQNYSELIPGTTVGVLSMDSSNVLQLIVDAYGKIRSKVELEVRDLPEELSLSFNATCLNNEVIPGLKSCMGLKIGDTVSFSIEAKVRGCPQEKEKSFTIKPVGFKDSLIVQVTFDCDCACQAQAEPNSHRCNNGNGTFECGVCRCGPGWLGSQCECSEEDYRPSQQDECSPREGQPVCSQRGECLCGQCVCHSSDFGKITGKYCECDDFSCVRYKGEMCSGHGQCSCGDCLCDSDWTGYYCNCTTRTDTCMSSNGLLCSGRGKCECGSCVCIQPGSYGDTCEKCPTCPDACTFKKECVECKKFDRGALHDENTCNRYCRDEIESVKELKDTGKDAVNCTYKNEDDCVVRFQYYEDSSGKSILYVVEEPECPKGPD
Nature of the data set: competition ELISA; coated integrin, biotinylated RGD-Knottin as competitor.
Description: (§1) The following washing and incubation steps were performed according to manuscript. ABTS substrate buffer was prepared by mixing substrate buffer pH4, 20 g/L ABTS and 3% H_2O_2 in the volumetric ratio 10/0.25/0.02.
(§2) Substrate buffer incubation and absorbance measurements were identical to that for binding ELISA. All experiments were carried out in triplicate.

The target of data set [5] is T1, recombinant human integrin αvβ3. Nature of the data set: competition ELISA; coated integrin, biotinylated RGD-Knottin as competitor (FIG. 2).
Description: as §1, §2
Data set [6] has as its target T2, recombinant human integrin αvβ6 (human, UniProt P06756 31-992; P18564 22-707).
T2 construct: Bought from R&D Systems
Nature of the data set: competition ELISA with Knottin; reference integrin αvβ3.
Description: as §1, §2

Data set [7] addresses T3, recombinant human integrin αvβ1 (human, UniProt P06756 31-992; P05556 21-728).
T3 construct: Bought from R&D Systems
The data set is described as above.
Description: as §1, §2

The target in data set [8] is T4, recombinant human integrin α2β1 (human, UniProt P17301 30-1132; P05556 21-728).
T4 construct: Bought from R&D Systems
The description is as above.
Description: as §1, §2

Data set [9] has as its target T5, recombinant human integrin α1β1 (human, UniProt P56199 29-1141; P05556 21-728).
T5 construct: Bought from R&D Systems
The description is as above.
Description: as §1, §2

Data set [10] has as its target T6, recombinant human integrin αvβ8 (human, UniProt P06756 31-992; P26012 43-684).
T6 construct: Bought from R&D Systems
Described as above.
Description: as §1, §2

For data set [11], the target named is T2, recombinant human integrin αvβ6. Description: integrin binding screen / competition ELISA with RGD-Knottin.
Data set [12] concerns the target T3, recombinant human integrin αvβ1. The data set is described as above.
Data set [13] has as its target T4, recombinant human integrin α2β1. The data set is described as above.
For data set [14], the target named is T5, recombinant human integrin α1β1. The description is as above.
Data set [15] has as its target T6, recombinant human integrin αvβ8. Described as above.
For data set [16], the target named is T7, recombinant human integrin α3β1 (human, UniProt P26006 33-991; P05556 21-728).
T7 construct: Bought from R&D Systems; Named only for the initial screening
Description: initial integrin binding screen.

Data set [17] has as its target T8, recombinant human integrin α4β1 (human, UniProt P13612 34-970; P05556 21-728, limits assumed).
T8 construct: Bought from R&D Systems; Named only for the initial screening
Description: initial integrin binding screen.

The target in data set [18] is T9, recombinant human integrin α10β1 (human, UniProt O75578 23-1122; P05556 21-728, limits assumed).
T9 construct: Bought from R&D Systems; Named only for the initial screening
Description: initial integrin binding screen.

Data set [19] deals with T10, recombinant human integrin α9β1 (human, UniProt Q13797 30-981; P05556 21-728, limits assumed).
T10 construct: Bought from R&D Systems; Named only for the initial screening
Nature of the data set: initial integrin binding screen.

Data set [20] has as its target T11, recombinant human integrin α6β1 (human, UniProt P23229 24-1011; P05556 21-728, limits assumed).
T11 construct: Bought from R&D Systems; Named only for the initial screening
Description: initial integrin binding screen.

For data set [21], the target named is T12, recombinant human integrin α5β1 (human, UniProt P08648 42-995; P05556 21-728).
T12 construct: Bought from R&D Systems; Named only for the initial screening
Nature of the data set: initial integrin binding screen.

The target in data set [22] is T7, recombinant human integrin α3β1. Description: binding study with Knottin; reference integrin αvβ3.
Data set [23] deals with T8, recombinant human integrin α4β1. The description is as above.
Data set [24] addresses T9, recombinant human integrin α10β1. Described as above.
In data set [25] the target is T10, recombinant human integrin α9β1. Described as above.
The target in data set [26] is T11, recombinant human integrin α6β1. The description is as above.
Data set [27] concerns the target T12, recombinant human integrin α5β1. The description is as above.

This is an account of results in patent publication US12622945B2, “Hard tissue therapeutics” (OrthoTrophix, Inc., priority 2020, dated 2026).

Entries after “also recorded” stand apart in the source; their conditions may differ. Where no end group is shown, it is not given here.

T6 sequence (P06756 31-992 limits assumed, chain 1 of 2): as the sequence (P06756 31-992 limits assumed, chain 1 of 2) above
T6 sequence (P26012 43-684 limits assumed, chain 2 of 2): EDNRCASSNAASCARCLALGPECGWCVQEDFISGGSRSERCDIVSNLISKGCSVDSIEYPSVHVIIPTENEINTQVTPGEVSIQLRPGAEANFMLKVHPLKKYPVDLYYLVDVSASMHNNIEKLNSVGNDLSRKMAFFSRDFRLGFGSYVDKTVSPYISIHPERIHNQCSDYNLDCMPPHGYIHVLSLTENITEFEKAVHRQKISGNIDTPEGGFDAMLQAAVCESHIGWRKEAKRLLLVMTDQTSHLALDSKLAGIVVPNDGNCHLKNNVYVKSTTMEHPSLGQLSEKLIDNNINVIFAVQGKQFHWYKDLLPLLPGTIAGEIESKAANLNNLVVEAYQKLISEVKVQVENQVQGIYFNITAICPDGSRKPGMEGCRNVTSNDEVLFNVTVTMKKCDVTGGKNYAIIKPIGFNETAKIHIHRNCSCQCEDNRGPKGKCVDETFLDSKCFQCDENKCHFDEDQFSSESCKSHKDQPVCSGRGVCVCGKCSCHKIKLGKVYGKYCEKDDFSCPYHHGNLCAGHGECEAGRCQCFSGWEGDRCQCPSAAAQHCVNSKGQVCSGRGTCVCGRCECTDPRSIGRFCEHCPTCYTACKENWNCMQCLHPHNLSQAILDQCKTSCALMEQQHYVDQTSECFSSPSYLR
T3 sequence (P06756 31-992 limits assumed, chain 1 of 2): as the sequence (P06756 31-992 limits assumed, chain 1 of 2) above
T3 sequence (P05556 21-728 limits assumed, chain 2 of 2): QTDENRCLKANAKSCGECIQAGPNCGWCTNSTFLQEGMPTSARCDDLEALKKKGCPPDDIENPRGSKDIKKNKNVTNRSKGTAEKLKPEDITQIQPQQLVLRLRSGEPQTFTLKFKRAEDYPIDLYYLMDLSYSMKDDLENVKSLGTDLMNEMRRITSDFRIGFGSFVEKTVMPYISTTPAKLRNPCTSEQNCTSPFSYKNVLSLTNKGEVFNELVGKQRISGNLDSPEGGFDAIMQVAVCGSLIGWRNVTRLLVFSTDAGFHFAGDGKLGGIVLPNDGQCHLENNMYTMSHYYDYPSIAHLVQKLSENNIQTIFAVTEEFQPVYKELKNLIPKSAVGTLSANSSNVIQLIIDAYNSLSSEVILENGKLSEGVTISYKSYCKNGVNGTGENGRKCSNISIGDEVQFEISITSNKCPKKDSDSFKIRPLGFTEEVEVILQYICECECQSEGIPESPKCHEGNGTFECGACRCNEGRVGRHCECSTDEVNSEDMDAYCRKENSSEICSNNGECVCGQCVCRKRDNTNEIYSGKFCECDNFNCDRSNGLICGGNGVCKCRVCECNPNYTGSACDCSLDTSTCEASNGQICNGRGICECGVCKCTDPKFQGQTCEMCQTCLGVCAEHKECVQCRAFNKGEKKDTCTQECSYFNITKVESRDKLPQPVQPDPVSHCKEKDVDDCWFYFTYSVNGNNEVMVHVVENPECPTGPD
T2 sequence (P06756 31-992 limits assumed, chain 1 of 2): as the sequence (P06756 31-992 limits assumed, chain 1 of 2) above
T2 sequence (P18564 22-707 limits assumed, chain 2 of 2): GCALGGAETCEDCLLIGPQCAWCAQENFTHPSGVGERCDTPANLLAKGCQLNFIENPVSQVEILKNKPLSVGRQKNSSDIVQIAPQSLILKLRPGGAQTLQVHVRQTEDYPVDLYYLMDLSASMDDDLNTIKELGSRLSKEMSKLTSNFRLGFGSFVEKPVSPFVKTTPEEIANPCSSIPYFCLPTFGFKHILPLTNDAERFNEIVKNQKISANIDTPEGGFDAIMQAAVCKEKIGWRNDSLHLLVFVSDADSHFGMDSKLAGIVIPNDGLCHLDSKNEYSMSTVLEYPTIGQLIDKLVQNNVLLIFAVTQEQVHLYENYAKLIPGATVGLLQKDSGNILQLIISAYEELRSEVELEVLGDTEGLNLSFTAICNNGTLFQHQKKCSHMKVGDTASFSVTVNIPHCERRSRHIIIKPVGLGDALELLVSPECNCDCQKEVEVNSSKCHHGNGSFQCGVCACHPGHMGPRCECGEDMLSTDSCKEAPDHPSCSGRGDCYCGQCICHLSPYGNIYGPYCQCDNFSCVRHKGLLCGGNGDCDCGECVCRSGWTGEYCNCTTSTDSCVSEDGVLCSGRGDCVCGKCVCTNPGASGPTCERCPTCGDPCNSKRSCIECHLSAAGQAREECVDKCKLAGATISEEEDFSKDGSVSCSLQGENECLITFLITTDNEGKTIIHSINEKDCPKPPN
T11 sequence (P23229 other isoform, or with tags, fused parts or gaps limits assumed, chain 1 of 2): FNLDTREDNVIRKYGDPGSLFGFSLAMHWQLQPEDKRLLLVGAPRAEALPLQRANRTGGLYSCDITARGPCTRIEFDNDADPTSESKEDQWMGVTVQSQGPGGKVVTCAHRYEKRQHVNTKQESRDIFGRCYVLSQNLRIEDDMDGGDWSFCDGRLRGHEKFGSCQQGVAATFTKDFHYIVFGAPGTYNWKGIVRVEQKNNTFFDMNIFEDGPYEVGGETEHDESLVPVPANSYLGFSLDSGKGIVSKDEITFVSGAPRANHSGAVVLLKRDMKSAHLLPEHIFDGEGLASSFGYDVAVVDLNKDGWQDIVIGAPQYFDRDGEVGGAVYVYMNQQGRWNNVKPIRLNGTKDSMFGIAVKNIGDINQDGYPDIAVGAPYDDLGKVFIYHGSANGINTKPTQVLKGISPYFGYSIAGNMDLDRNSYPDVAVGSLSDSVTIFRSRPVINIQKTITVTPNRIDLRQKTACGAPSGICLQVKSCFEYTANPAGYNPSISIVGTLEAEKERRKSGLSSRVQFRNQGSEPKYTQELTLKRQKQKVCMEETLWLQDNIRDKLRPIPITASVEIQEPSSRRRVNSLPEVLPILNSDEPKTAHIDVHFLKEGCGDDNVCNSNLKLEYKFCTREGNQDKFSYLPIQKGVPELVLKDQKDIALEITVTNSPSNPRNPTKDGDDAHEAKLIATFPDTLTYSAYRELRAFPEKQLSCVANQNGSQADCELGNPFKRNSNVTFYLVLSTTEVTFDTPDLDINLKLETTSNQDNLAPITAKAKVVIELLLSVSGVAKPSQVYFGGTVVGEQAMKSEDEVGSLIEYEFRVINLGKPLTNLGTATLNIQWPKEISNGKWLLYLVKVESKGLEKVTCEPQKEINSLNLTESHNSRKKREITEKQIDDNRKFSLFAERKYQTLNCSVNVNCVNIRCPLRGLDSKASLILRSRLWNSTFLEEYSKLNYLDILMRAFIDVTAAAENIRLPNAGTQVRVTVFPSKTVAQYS
T11 sequence (P05556 21-728 limits assumed, chain 2 of 2): as the sequence (P05556 21-728 limits assumed, chain 2 of 2) above

As to PDLLVRGDNDVPPFSGDGQHFMH [SEQ ID No: 14], the “biological activities in the bone cells of the other species” value in data set [1] is “interchangeably show biological activities in the bone cells of the other species”.
As to “TDLQERGDNDISPFSGDGQPFKD-NH2 (C-terminus assumed) [SEQ ID No: 10]”, in [2], the adverse events result is recorded as “no severe adverse events that were related to the peptide; also recorded: mild or moderate, transient”; the safety and tolerability result was “safe and well tolerated”. In [3], the “biological effects on cell types, tissues, or organs other than hard tissues” value was “never demonstrated biological effects of the peptide on cell types, tissues, or organs other than cartilage, bone, and dentin”.
For TDLQERGDNDISPFSGDGQPFKD-NH2 (also called human orthologue) [peptide of SEQ ID No: 10 (TPX-100)], the 50% inhibitory concentration (IC50) in data set [4] was roughly 30 µg/mL; in data set [5], roughly 33 µg/mL. The “fold by which the binding affinity to αvβ3 is higher than to this integrin” value in data set [6], in data set [7], in [8], in [9], in data set [10] and in [22] was no less than 300 times each time. The “fold by which the binding affinity to αvβ3 is higher than to this integrin” value in [23], in data set [24], in data set [25], in [26] and in data set [27] was no less than 300 times in each case. The binding result in data set [11], in [12], in data set [13], in data set [14], in data set [15] and in data set [16] was “no binding” each time. Moreover, the binding result in [17], in data set [18], in data set [19], in data set [20] and in [21] was “no binding” each time.
